# Assay: soluble on expression in E. coli; label from the status in PepcDB or PDB records
row,Sequence,soluble on expression in E. coli
1,MKQEFTRIAVKVGSNVLARRDGTLDVTRMSALVDQIAELNKSGVEIILISSGAVASGRSEIHPQKKLDSVDQRQLFSAVGQAKLINRYYELFREHGIAVGQVLTTKENFSTRRHYLNQKNCMTVMLENGVIPIVNENDTISVSELMFTDNDELSGLIASMMDAQALIILSNIDGIYNGSPSDPASAVIREIEHGKDLSNYIQATKSSFGRGGMLTKTNIARKVADEGITVIIANGKRDNILVDLLQQPDDTVCTRFIPSTEAVSSVKKWIAHSEGFAKGEIHINECATDILSSEKAASILPVGITHIEGEFEKDDIVRIMDFLGNQVGVGKANCDSAQAREAMGKHGKKPVVHYDYLYIE,not soluble
2,MSLQEKQLKTIQNKIASWIKEIESAFIDELFSKIGPSKMLRSKLMLALLNEKTDAILLDKAFNLCAIVEMIQTASLLHDDVIDKAAMRRKLPSINALFGNFNAVMLGDVFYSKAFFELSKMGESIAKSLSNAVLRLSRGEIEDVFVGGSFNSDKQKYWRILEDKTAHFIEASLKSMAILLNKDAKMYADFGLNFGMAFQIIDDLLDITQDAKTLGKPNFSDFKEGKTTLPYLLLYEKLNQRDQGLLISYFKQDSHEIIEWTKEKFKQYGTIEETLKIAQVYSKKALEAIKGENNLILEKLAQDVIYRTFEGHHHHHH,soluble
3,MLTREDIFKHVKEKYGTSPDYPWEKYPNYASLRHTSNKKWYGLIMNVLPEKLGLDGHGEIDILNLKCPPEISDRLRNGENILPGYHMDKEHWISIVLERTDPEGEIYNLIEQSFHLTKLEHHHHHH,soluble
4,MSTTAYQPIAECGATTQSEAAAYQKRWLVANDAGQWLNRDLCPRLAEVSVELRMGYLVLKAPGMLRLDIPLDVIEDDDSVRYQMLVGEQTVDVVDEGELAAAWISNHAGVPCRILKVHPDMAEVRWPSLEHHHHHH,soluble
5,MDHGVVLLSDDQGLQWRQASSVPLSTPLTGVSFVDAKRGWAVGHWGAILITTDGGESWQVQRLATEEDRPLFAVHFFNARQGVAVGLWSLVLTTEDGGQTWSEQPLQAPPGAKRADLNLMGLFADSRGTLYATAEHGQVLHSEDQGKNWRYLDTGYEGTLWAGAVLADGRLLLGGQRGTLLQGSADGKGFHRVPTQSKGSVTCVAVAGSRVLAVGLDGLSVQSSDGGHSFQETQTADGLSLTAALFNAEGVPVLFSRRGVMPYQELEHHHHHH,not soluble
6,MGQPPAEEAEQPGALAREFLAAMEPEPAPAPAPEEWLDILGNGLLRKKTLVPGPPGSSRPVKGQVVTVHLQTSLENGTRVQEEPELVFTLGDCDVIQALDLSVPLMDVGETAMVTADSKYCYGPQGSRSPYIPPHAALCLEVTLKTAVDLEHHHHHH,soluble
7,SGKGGWLLNFLNHAKNQESVENLDKNGAVKAPSSGFKMPLHYPRYTKEDYEEMEEWRLDLLLSEYGLLAFHDNTLHEKRAFAIDTFIWPHHP,soluble
8,MGSDKIHHHHHHMQIELANFEKIYTHFVGNKSDEEGITISKTPLQLNDESLKELLLNYFTHPFKNKEYNHFHHETDLNLNELYTYCSTIFADPDALYLQSINIAKHLYEQSKHPMIKGGELYVVHFNDCVIDGESTDAIGLFKSETKETFLKIFPQGDGYEAVSDKGIDIRKLDKGCFIINSEKENGYKVCVVDQTNKSSDAQYWKDDFLKIVSRNDSFHYTQNYMNMCKSFVTDQMPETFEVSKTDQIDLLNRSVNYFKKNESFDMQAFTNDVIQDEGLIDSFKEYKNKFQEDHQMPMVDEFEISTPAVKKYAKVFKSVLKLDRNFHIYIHGDKDLIERGRDDASGMNFYKIYYKEES,not soluble
9,MKFGWIKTTGNDLEERMESVKDALESSIPGIIAEKEEISSVRELGNIKIVSDNLDADVVLINKGEDLEILKSAKLSGKETGVYVVINTKEDEVYATDVSKLDFVDYVVLEGSDWTIIPLENIIADLFSEEIKIVSVVTNVKDAEAAYEILEKGVDGVVLIPKDINEVKDFSKLIERMNSESVKLDYATVTKIEPVGSGDRVCIDTCSMMEMGEGMLIGSYSRGMFLVHSETVENPYVATRPFRVNAGPVHAYILCPENKTKYLSDLKAGDKVLVVNKNGETREAIIGRVKIEKRPLFLVEAEYNGENLRTILQNAETIRLVGEDGKPVSVVDLKVGTKVLIKPDENARHFGMAIKETIIEKLEHHHHHH,soluble
10,QDTSPDTLVVTANRFEQPRSTVLAPTTVVTRQDIDRWQSTSVNDVLRRLPGVDITQNGGSGQLSSIFIRGTNASHVLVLIDGVRLNLAGVSGSADLSQFPIALVQRVEYIRGPRSAVYGSDAIGGVVNIITTRDEPGTEISAGWGSNSYQNYDVSTQQQLGDKTRVTLLGDYAHTHGYDVVAYGNTGTQAQTDNDGFLSKTLYGALEHNFTDAWSGFVRGYGYDNRTNYDAYYSPGSPLLDTRKLYSQSWDAGLRYNGELIKSQLITSYSHSKDYNYDPHYGRYDSSATLDEMKQYTVQWANNVIVGHGSIGAGVDMQMQMTTPGTGYVEDGYDQRNTGIYLTGLQQVGDFTFEGAARSDDNSQFGRHGTWQTSAGWEFIEGYRFIASYGTSYKAPNLGQLYGFYGNPNLDPEKSKQWEGAFEGLTAGVNWRISGYRNDVSDLIDYDDHTLKYYNEGKARIKGVEATANFDTGPLTHTVSYDYVDARNAITDTPLLRRAKQQVKYQLDWQLYDFDMGMTMQYLGTRYDKDYSSYPYQTVKMGGVSLWDLAVAYPVTSHLTVRGKIANLFDKDYETVYGYQTAGREYTLSGSYTF,soluble
11,MAKEINLTGEEVVALAAKYMNETDAAFVKKALDYATAAHFYQVRKSGEPYIVHPIQVAGILADLHLDAVTVACGFLHDVVEDTDITLDNIEFDFGKDVRDIVDGVTKLGKVEYKSHEEQLAENHRKMLMAMSKDIRVILVKLADRLHNMRTLKHLRKDKQERISRETMEIYAPLAHRLGISRIKWELEDLAFRYLNETEFYKISHMMNEKRREREALVDDIVTKIKSYTTEQGLFGDVYGRPKHIYSIYRKMRDKKKRFDQIFDLIAIRCVMETQSDVYAMVGYIHELWRPMPGRFKDYIAAPKANGYQSIHTTVYGPKGPIEIQIRTKEMHQVAEYGVAAHWAYKKGVRGKVNQAEQKVGMNWIKELVELQDASNGDAVDFVDSLEHHHHHH,soluble
12,MGHHHHHHSHGDAAPEALEFEYDLAEPPEKVWRALTVPELLAAWMMPNDIRPEIGNRFAFAGTEAAIECEILDAEPERLLRYSWRQQPGDAARQDPLDSVVTFTLARTVSGGTHLRIVHDGFGGKAMPAVAMASG,not soluble
13,MEALDLLLNRRSIAKLDAPAPQNEALDNILRAGLRAPDHGALTPWRFVVAQGEGLAKLAAILEQAEIANGSDEAVISKAKNAPFRAPMVITVIAKVTHSEKIPAFEQHLSAGCAVQAMQMAAIAQGFQGIWRSGSWMFHPVVRRAFNVQGEDHIVGFLYLGTPGTTAAKVPERELSKYVEYL,not soluble
14,MGSDKIHHHHHHMPTYDAVIVGSGINSLVCAAVLARSGKRVCVLERNSTLGGCIRTEALHAPGYLHDTLSTAHPLFVTSPGYAELKDDLHQAGLSYANNDTPTGVLLPGNRSLILATSRERNVSAFNALASGDGDAYLAAMQEVEQNAGLVFSLLGNELWSADVAKTVAGRLWKQGVHDTVAFFSPALMSCRSWLETRIRSDLVRALLAPWVLHTGLGPESAMSALMGKVVAFSLEAVGLPIVQGGNARTVEAFRQIVESHGGAFHVNADVEDVLVENGSARGVRTRDDRVFMGKEIICNVTPGQLYGKLLAPAHVPPALRQQAAEYRYGKGNMQIHLSLSAPPDWPHAHLRNVIYLHLTSGLDGVSRAVSEAERGLLPAEGTICVAQPCAVDPSRSPAGGWVLWIQVPECPRTIKGDALGEIDAPADGRWTPEIRERYADRIIDRIARQVPNLKASIVGRTVLSPADLEAMNINLVGGDPYSGECSIDQFMVWRPLRGARNHATPVKHLHHIGASTHPGPGLGGTSGYHVANALARKRAKSNRT,not soluble
15,MELEQREGTMAAVGFEEFSAPPGSELALPPLFGGHILESELETEVEFVSGGLGGSGLRERDEEEEAARGRRRRQRELNRRKYQALGRRCREIEQVNERVLNRLHQVQRITRRLQQERRFLMRVLDSYGDDYRASQFTIVLEDEGSQGTDAPTPGNAENEPPEKETLSPPRRTPAPPEPGSPAPGEGPSGRKRRRVPRDGRRAGNALTPELAPVQIKVEEDFGFEADEALDSSWVSRGPDKLLPYPTLASPASD,soluble
16,MSELHFMSLEELDNELEKDDSGIYFIKDYNDNIIYIGKAFSIKSRVLAHFNSYSNIKEYVHLFNKVAYLIEDSLLKRSLLQVTYMIKYKPVLNKEVQKEFPELYTQYIKQTNKKSMLLEIEEAKEKRDELKNRLVKLVGGKTMFYDIISLLNNGYNYHVLAKVLSIELQTLIIMKEHRNKFPMPHNYKRTIKHQDIMYALSGKKNLSTSRLNT,soluble
17,MTKEERISRATELFKSGYNCSQSVVAAFADMYGFTEEQALRMAASFGGGIGRMRETCGAACGMFLLAGLEKGAIDGADREGKAANYALVQELAAEFKKRNGSLNCGELLGLKKKAPVSSEPEARTEQYYAKRPCSKMVEEAARIWAEYLEKEKK,not soluble
18,GSSNSHRGLAPTNVDFAFNLYQRLVALNPDKNTLISPVSISMALAMVSLGSAQTQSLQSLGFNLTETSEAEIHQSFQYLNYLLKQSDTGLEMNMGNAMFLLQKLKLKDSFLADVKQYYESEALAIDFEDWTKASQQINQHVKDKTQGKIEHVFSDLDSPASFILVNYIFLRGIWELPFSPENTREEDFYVNETSTVKVPMMVQSGSIGYFRDSVFPCQLIQMDYVGNGTAFFILPDQGQMDTVIAALSRDTIDRWGKLMTPRQVNLYIPKFSMSDTYDLKDVLEDLNIKDLLTNQSDFSGNTKDVPLTLTMVHKAMLQLDEGNVLPNSTNGAPLHLRSEPLDIKFNKPFILLLFDKFTWSSLMMSQVVNPA,soluble
19,MTQRDTGRLDAIVLAAGRGVRFGGGKLTALLDGDPLVAAALLTAFLAPARRVVVAVGPEPDVRQAVEATATRLLARERLVLVPIDDPSAGMGASLAAAARSLPGDTDGVFVFLGDMPRIDPATPRHLAAALRDPGDIVAPTYLGRRGHPVLFGARWAPVLGALSGDEGARAIVDKAGESLVLVPVDDPGVHLDVDRPSDLARVQTDRRTLLEHHHHHH,soluble
20,MGSDKIHHHHHHMTNLNYCRPLSLTTNRCLMNKELETLILSAVDLPTIPLVATKVIEMIEQEDVTIEKIAQTVSADPAVAARILKLSNSAYYGCQRQINTLSGAIMLLGFRTLKSLVVAASLKQICKRFGLTEKMLWEHAVGAAIAARIISANGKFINEETAFLAGLFHDIGKTIMNDLDPSKFQQVMMRCYNEGLPFEEVERSIYSFSHAEVGALVIRKWNFPEALSTAVMNHHDFPNPTLTDQYDLFLTATTCLADKFCKKLGIGERHPDEELDLAKTQEAHLLGYTPETILRDVDQFAQTFEENKSFFIND,not soluble
21,NWLTADGAAGPSGEGGFAAEKDRYHLYVSLACPWAHRTLIMRKLKGLEPFLPVSVVNPLMLENGWTFDDSFPEATGDTLYQHDFLYQLYLHADPHYTGRVTVPVLWDKKQQTIVSNESAEIIRMFNTAFDGLGARAGDYYPPALREQIDELNGWIYDNVNN,not soluble
22,DWDSREKEAQRVAQRVTARTVSEIEYYHRESTQIAQALVENQARIEGIYKYFSLSMPDYFYWQLERKASPYISVSLYENVDDLYVRNDFVTGVAIAFQDYKEVYVSTKDKRSGEKIRAEDFKPAGNSFAIPVSDPVSDQDLGVIYISLDPAVLYHAIDNTRGHTPMAVTVTSPFDTEIFHMGETVDKESENWLVGLTSHGYQVQVAVPKN,not soluble
23,MKQVPPAAPVAPWLGGKKRLHPLILERIEAIPHRAYVEPFVGMGGIFLRRRFRPRLEVMNDRNGEIINLFRILQRHYPQLLEIMRFQICSRREFDRLRLTDPATLTDLERAARFLYLQRLSFGGKPNGSFGISPGNGPLFSLARLEPLLDAARTRLDGVVFECLDWADLIPRYDTAETLFYLDPPYFGGENDYGKGLFDRAQFARIAEILGSLKGAFLLSINDTPEIRALFGRFHLEPVRLNYSVSAAGSTEAQELLVSNRERIATLL,not soluble
